Experiments:
Hfq:R16A (rim mutant) [1] = target: T1, Hfq:R16A (rim mutant) (Escherichia coli K12, UniProt P0A6X3 1-102, R16A); experiment: smFRET; sRNA (N13)-Hfq; half as much time on distant site as WT; smFRET: 10 mM Tris-HCl pH 7.5, 50 mM NaCl, 50 mM KCl, 4 mM Trolox, 0.01% Nikkol, 0.8% glucose, RNasin, oxygen scavenger; EMSA: 1x TNK, 5% glycerol, 15 min RT, native 8% PAGE 1x TBE 4 C; details: protein: recombinant; tags: none (untagged); chain copies: 6; label: tether 5' biotin, 3' Cy5; RNA 3' extension paired to DNA tether; 5' hairpin
[2] = target: Hfq:TM (triple rim mutant) (Escherichia coli K12, UniProt P0A6X3 1-102, R16A;R17A;R19D); experiment: smFRET; 5 nM TM, less compaction E~0.37; smFRET: 10 mM Tris-HCl pH 7.5, 50 mM NaCl, 50 mM KCl, 4 mM Trolox, 0.01% Nikkol, 0.8% glucose, RNasin, oxygen scavenger; EMSA: 1x TNK, 5% glycerol, 15 min RT, native 8% PAGE 1x TBE 4 C; details: protein: recombinant; tags: none (untagged); chain copies: 6; label: internal Cy5; tether 5' biotin, 3' Cy3 (unlabeled tether for sRNA assays); RNA 3' extension paired to DNA tether; 5' hairpin
[3] = target: Hfq:Y25D (distal face mutant) (Escherichia coli K12, UniProt P0A6X3 1-102, Y25D); experiment: smFRET; 5 nM Y25D, compaction E~0.75; smFRET: 10 mM Tris-HCl pH 7.5, 50 mM NaCl, 50 mM KCl, 4 mM Trolox, 0.01% Nikkol, 0.8% glucose, RNasin, oxygen scavenger; EMSA: 1x TNK, 5% glycerol, 15 min RT, native 8% PAGE 1x TBE 4 C; details: protein: recombinant; tags: none (untagged); chain copies: 6; label: internal Cy5; tether 5' biotin, 3' Cy3 (unlabeled tether for sRNA assays); RNA 3' extension paired to DNA tether; 5' hairpin
Hfq:R16A (rim mutant) [4] = target: T1, Hfq:R16A (rim mutant); experiment: smFRET; 5 nM R16A, less compaction E~0.43; smFRET: 10 mM Tris-HCl pH 7.5, 50 mM NaCl, 50 mM KCl, 4 mM Trolox, 0.01% Nikkol, 0.8% glucose, RNasin, oxygen scavenger; EMSA: 1x TNK, 5% glycerol, 15 min RT, native 8% PAGE 1x TBE 4 C; details: protein: recombinant; tags: none (untagged); chain copies: 6; label: internal Cy5; tether 5' biotin, 3' Cy3 (unlabeled tether for sRNA assays); RNA 3' extension paired to DNA tether; 5' hairpin

Binder | binding result (Hfq:R16A (rim mutant) [1]) | binding result [2] | binding result [3] | binding result (Hfq:R16A (rim mutant) [4])
(AAC)4-S6-N35-S6 tandem mRNA on DNA tether (mixed) RNA: GGACUCUAUCGAGUCCAACAACAACAACAGACCUCUCUACCAUCACCUAAACUUUACUCUACCAUCACCAGACCUCGCGCCCAGGACGACACACUUUGGACAGGACACACAGGACACAGG DNA: CCTGTGTCCTGTGTGTCCTGTCCAAAGTGTGTCGTCC | binds | – | – | –
(AAC)6-Cy5-N35-S6 mRNA on DNA tether (mixed, internal Cy5 after nt 35) RNA: GGACUCUAUCGAGUCCAACAACAACAACAACAACCCCUGCAUCACCUAAACUUUACUCUACCAUCACCAGACCUCGCGCCCAGGACGACACACUUUGGACAGGACACACAGGACACAGG DNA: CCTGTGTCCTGTGTGTCCTGTCCAAAGTGTGTCGTCC | – | binds | binds | binds
